Results on one substance are retold here after article PMC6538526.

In general, IC50 refers to the concentration at which inhibition is half-maximal. Read a high IC50 as lower potency.

Where two headings read alike, the source gives them in different places.

The target of test [1] is GST-BRCA2 fragment B2-9 (amino acids 3189–3418) (UniProt P51587). Nature of the test: pull-down.
The target is the same in test [2]. Put plainly: pull-down. This is another data set of the same source.

Chain of UniProt P51587 (P51587 3189-3418): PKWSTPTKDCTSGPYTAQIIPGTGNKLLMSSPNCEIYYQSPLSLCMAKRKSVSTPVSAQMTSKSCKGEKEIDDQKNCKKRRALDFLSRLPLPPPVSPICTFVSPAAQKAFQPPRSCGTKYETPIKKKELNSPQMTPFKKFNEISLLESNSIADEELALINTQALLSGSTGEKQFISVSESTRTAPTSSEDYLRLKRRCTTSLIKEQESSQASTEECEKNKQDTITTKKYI

As to “purified cyclin A (from UniProt P20248 1-432) (natural protein)”, the IC50 in test [1] turned out to be 29.5 nM; in test [2], 28.5 nM.
